Data reported in paper PMC6859894 (Nature, 2019).
Read-outs that look alike come from different tables or passages of the source.

Experiments:
cryo-EM structure [1] = molecular target: the molecule itself; experiment: cryo-EM structure
cryo-EM structure [2] = molecular target: the molecule itself; experiment: cryo-EM structure; remark: listed apart in the source

B1: chicken STING (Gallus gallus), full-length, C-terminal Flag tag (natural protein, chicken (Gallus gallus), UniProt E1C7U0 1-379, looked up)
chain: MPQDPSTRSSPARLLIPEPRAGRARHAACVLLAVCFVVLFLSGEPLAPIIRSVCTQLAALQLGVLLKGCCCLAEEIFHLHSRHHGSLWQVLCSCFPPRWYLALLLVGGSAYLDPPEDNGHSPRLALTLSCLCQLLVLALGLQKLSAVEVSELTESSKKNVAHGLAWSYYIGYLKVVLPRLKECMEELSRTNPMLRAHRDTWKLHILVPLGCDIWDDLEKADSNIQYLADLPETILTRAGIKRRVYKHSLYVIRDKDNKLRPCVLEFASPLQTLCAMSQDDCAAFSREQRLEQARLFYRSLRDILGSSKECAGLYRLIAYEEPAEPESHFLSGLILWHLQQQQREEYMVQEELPLGTSSVELSLQVSSSDLPQPLRSDCP
cryo-EM structure [1]
  ratio of dimer to higher-order oligomers in the micrographs: ~4 dimer : higher-order oligomers
  stoichiometry N: 4
cryo-EM structure [2]
  stoichiometry N: 2
